Test results: US20220169720

Columns and labels:
[1] = system: Rubicon mutant's 117-189 amino acids (phosphor-null mutants, single serine/threonine substituted with alanine)
[2] = system: Rubicon (RUN domain protein as Beclin-1 interacting and cysteine-rich containing), wild-type
Chain of Rubicon (RUN domain protein as Beclin-1 interacting and cysteine-rich containing), wild-type (chain, as listed by the source): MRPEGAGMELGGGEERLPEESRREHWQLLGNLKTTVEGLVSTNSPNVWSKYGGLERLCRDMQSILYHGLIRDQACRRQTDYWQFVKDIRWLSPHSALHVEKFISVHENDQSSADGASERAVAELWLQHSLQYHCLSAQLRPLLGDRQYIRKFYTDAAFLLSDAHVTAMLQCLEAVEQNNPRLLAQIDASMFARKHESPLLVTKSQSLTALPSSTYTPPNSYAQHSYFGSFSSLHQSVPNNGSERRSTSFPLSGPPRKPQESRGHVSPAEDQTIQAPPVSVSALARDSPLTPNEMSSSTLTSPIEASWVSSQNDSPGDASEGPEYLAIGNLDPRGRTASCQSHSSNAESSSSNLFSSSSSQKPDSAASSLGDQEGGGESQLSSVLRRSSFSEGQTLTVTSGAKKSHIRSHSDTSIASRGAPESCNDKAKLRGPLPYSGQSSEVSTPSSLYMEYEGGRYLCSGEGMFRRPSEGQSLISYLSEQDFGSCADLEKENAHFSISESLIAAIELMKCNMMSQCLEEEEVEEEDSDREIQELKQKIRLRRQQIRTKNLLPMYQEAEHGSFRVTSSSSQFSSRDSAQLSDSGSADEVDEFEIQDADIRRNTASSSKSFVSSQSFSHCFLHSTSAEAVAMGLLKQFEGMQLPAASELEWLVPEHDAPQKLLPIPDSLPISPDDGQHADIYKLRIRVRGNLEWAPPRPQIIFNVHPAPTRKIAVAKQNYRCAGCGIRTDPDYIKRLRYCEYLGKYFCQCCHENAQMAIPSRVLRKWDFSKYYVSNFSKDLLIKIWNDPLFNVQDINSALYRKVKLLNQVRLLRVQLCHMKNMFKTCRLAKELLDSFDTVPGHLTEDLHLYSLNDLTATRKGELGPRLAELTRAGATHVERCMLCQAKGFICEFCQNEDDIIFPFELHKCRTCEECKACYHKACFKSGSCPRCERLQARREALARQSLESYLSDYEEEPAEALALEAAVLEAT

Substance | amount of generated ADP as a by-product of LRRK2 kinase activity [1] | extent of Rubicon phosphorylation by LRRK2 kinase (kinase assay with wild-type or phosphor-null mutant Rubicon as substrate) [2] | pT166-Rubicon by ELISA in human neurons transiently over-expressing wild-type (WT) LRRK2 [2] | pT166-Rubicon by ELISA in human neurons with endogenous LRRK2 knocked down [2] | pT166-Rubicon by ELISA in human neurons transiently over-expressing mutant LRRK2-G2019S [2]
Leucine-rich repeat kinase 2 (LRRK2), wild-type | Rubicon mutant's 117-189 amino acids significantly decreased LRRK2 kinase activity | determined T166 and S189 as the consensus LRRK2-specific phosphosites | 12% and 26% increase in pT166-Rubicon respectively compared to control | 32.4% decrease in pT166-Rubicon compared to control | –
mutant LRRK2-G2019S | – | – | – | – | 12% and 26% increase in pT166-Rubicon respectively compared to control
